Reference: the DeepSol protein solubility set

Experiment: soluble on expression in E. coli; label from the status in PepcDB or PDB records

Sequence | soluble on expression in E. coli
MIAITGATGQLGHYIIESLMKTVPASQIVAIVRNPAKAQALAAQGITVRQADYSDEAALTSALQGVEKLLLISSSEVGQRAPQHRNVINAAKAAGVKFIAYTSLLHADTSPLGLADEHIETEKMLADSGIVYTLLRNGWYSENYLASAPAALEHGVFIGAAGDGKIASATRADYATAAARVISEAGHEGKVYELAGDSAWTLTQLAAELTKQSGKQVTYQNLSEADFAAALKSVGLPDGLADMLADSDVGASKGGLFDNSKTLSKLIGCPTTTLAESVSHLFNVNN | not soluble
MAGASETYTHTLTDVPIDIKYDSDDYFISGYSYGADVYMSSVNRVKLDSEINEDTRKFKVVADLTNMKPGTHKVPLKVVNLPSGVNATVSPTTITVTMGKKKTKEFPLEHHHHHH | not soluble
MVHYKVSYFPIRGAGEIARQILAYAGQDFEDNRIPKEEWPAVKPSTPFGQLPLLEVDGKVLAQSHAIARYLARQFGINGKCAWEEAQVNSVADQFKDYLNEVRPYFMVKMGFAEGDLDALAKDVFLPGFKKHYGFFANFLKSAGSGYLVGDSLTFVDLLVAQHTADLLAANAALLDEFPQFKAHQEKVHSNANIKKWLETRPVTPF | not soluble
MAVPGFTFDEALLTEIAASFQLRASNINALTALVQRLSGDFDRSTPQVMNMATGAGKTYVMAAFIEYMRRQGLRNVMIVTPGLVVQTKTVANFTQGSPKFIDGSPVPPRVVTPENYKSNPADQTAFTEQGASNVYVFNVQQLIGPKDMDGDTTSGSKAAVARGVHKFSEYAGVLYDELKNMDDLVVLADEHHLYSAKAKAFHAAIHDLEPAALVGLTASPGEKDETIFTYPLYKAIADKNVKQPVIVYRKDGYGELGEYQQLKDAKTLLETKAGHYAVKNQEEGTSPISPVMLVVCEDIAHATRIEETLVGPDLFGDPYAVLRVDSDSMNEEKAALLDAIDTPDSPVRAVVSVNKLKEGWDCRSIAVMVTLRAMDSDILTQQTLGRGLRLPYGKYAEVEAIDTLDIVAHESFQRLLSSEKVNKSFGFDKRKTSQPAPPQPVHPMDVTPPTPVPTPDLDPVPGGNTTAPTPVLPPADPQPVAPDLDKGTDTRPPLGLKELGGDGASPEDLYPEPTPLAVVELVEKFRDVSFLFPRTTYTAKNAAYPLEKLMQDEIIQVARQITDNPQAVLERLALAGDEAQGRVMAKRLTQGTIDAIALDEDAVKKQLVGAIITHRRVERSPENISQAKNRIAPLIYNNALATTWTVDTLHVASILLGKAIDASVRQFLANLEPDVTLVPLTMPTRTRFELGVGKTIEPRPGEFDKYINGQFYSGWTRNLYTAASFDSNSAEHKLACDLDVSPDVEWWTRLYMADGASIDYQVGKTYYPDFVVRDREGRTWIVEGKDAGGRTNEEVKAKRDAAELALNLMASNEDMGALKVGYIIAYEDTIKEAGSWSRLISMSGAVKSAN | not soluble
MNFEDVFREFGELWYDIEFVLTTVIKTKNVTPILTLSGEFCVPGIHALYNIFHIMISVLRIFQKVKHDTWHLVTDYVNILETRLKPFERTPCFITNTALETIIQELCEYWRMLENVPCKDIRSIEGARFTENDWKNELIRIGLSDIFPELVEFFDAGYQVLLNIAQNGDTLKTSDLICHLESTQAFCFSSRFKFLEVASDIQQGIYPKFRNSVNVFIGIASKSESLLPHLKARSRYEGILSAMQVDKQLVPPPIQICHKLIIDAETVSNPTPVPQQLEKKTENCSECSDVRMEMYTVKDVLQNVQKQLKNMQQNSEQFETKLVASDNKTKNFEKQLEDERRKNNKHLESSRKTLISKNEQLEALKRRATALSNCQAENQTLKFKIAEHHDLEKQLNISNKDVTQARDQLSGQISELEIQLKSELKNVEHLNKEHKKAIDLANEISKLKTEIERETSISKQLEKEISQLRTETDEMNIVITQSLEMENLQLRDVTKKFETENASLLKTNQQLSIQNEEQKRLIQVLLEKQQTAPSSSDFPVPSTQMTDNEENSRQQLWKYQKIKDSFRDGMKLRKAEAMVKKLTSLDRDLGVHQMAHRELENFKKLTSYYLQAIEMNIPKIKNNGSSDLEQLPEAPKFSNEFMRFYRNATGKQPLTSSSSSSANPRSTHIEGSSISTMPSTSSRGNVQHHSGSAVRGQSITPTGLSQVPMSPRKLFSQPDIVTASVPSTELDDTECAICLDEMTNFKETIKCECRRRFHLKCATKWLNEKRECPTCRKLLLNPADYPPLN | not soluble
MEALILEPSLYTVKAILILDNDGDRLFAKYYDDTYPSVKEQKAFEKNIFNKTHRTDSEIALLEGLTVVYKSSIDLYFYVIGSSYENELMLMAVLNCLFDSLSQMLRKNVEKRALLENMEGLFLAVDEIVDGGVILESDPQQVVHRVALRGEDVPLTEQTVSQVLQSAKEQIKWSLLR | not soluble
MSLAAEGKAIAKVNDLVIFVPYVVPGDVVDLQIKRKKNKYAEAEAVKFHELSPVRAVPFCQHYGVCGGCKWQVLPYSEQIRYKQKQVEDNLRRIGKIELPEISPILGSAKTEFYRNKLEFTFSNKRWLTNDEVRQDVKYDQMNAVGFHIPGAFDKVLAIEKCWLQDDISNRIRNAVRDYAYEHDYSFINLRTQEGMLRNLIIRTSSTGELMVIVICKITEDHEMELFKQLLQFIADSFPEITSLLYIINNKCNDTINDLDVHVFKGKDHMFEEMEGLRFKVGPKSFYQTNSEQAYNLYKIAREFAGLTGKELVYDLYTGTGTIANFVSRQARQVIGIEYVPEAIEDAKVNAEINEIKNALFYAGDMKDMLTQEFINQHGRPDVIITDPPRAGMHQDVVDVILFAEPKRIVYVSCNPATQARDLQLLDGKYKVKAVQPVDMFPHTHHVENVVLLELREGHHHHHH | soluble
MGSDKIHHHHHHMVASKQGLDLFQASGEPYEIGYRLGELARPVFAGYMRQSRAWQAVRRWRGAPFVHKLREAAHAHFPALLVELDGMAAGLGWTAEDMFLWNCRGELIHNVPDGCTTLAAHVGDTRFIAHNEDGDPFLGERCALVEVRPAGKPGFVSFHYPGSLPGHTFAASRAGVVQAINNLRIRAPVAGVPRMILARAVLDAASLDEALHILRDTPAASGFHHTLGCAGDARLVSVEVSARRCSVQTVPNLYGHANHMIHPGCEAEAQIVTDSSRERQARVNALLPALSRPLQPAALLDVLQDRAPSGLPIYRDDPLDPDGENTLATALFEIGGAGVSMKVYRQGQRAFDAFIARAACGQTGA | not soluble
PQKICLICGDEASGCHYGVLTCGSCKVFFKRAMEGQHNYLCAGRNDCIVDKIRRKNCPACRLRKCCQAGMVLGGRKFK | soluble
MSLLQVAPSAYRRHAARQRCPKLRSARSQRDEGLMAEIRRVWQANMQVYGVRKVWYQLQREGIAVARCTVERLMRRLGLQGVRRGKRVRTTIADGSQACSLDRVNRHFHADRPNQLWVSDFTYVSTWQGWLYVAFVIDVFARRIVGWRVSTTMSTDFVLDALEQALYDRRPAESLIHHSDRGSQYVSIRYTERLAEAGIEPSVGSRGDSYDNALAETINGLYKAELIHRRAPWKTRAAVELATLEWVAWYNHQRLLGSIGYIPPAQAEELYHRTHSETVPMNAVLEGHHHHHH | not soluble
MGSDKIHHHHHHMSQTLLPPGWVEKLCDPYAVLGISVIADDRQIFKRYHTLAKLLHPDRHAKNCNPDQKLATAIFSHLINPAYQQLKHRQKRLIAIAMLRSDARVSEQKPLSSQSAIAQEIMKMSTPEAELFYEEAIACYAEAQYKSLDQFYQVTQQITILNLVYLRLHKPDLFLPQKAVAIIPEVEVNPVELTLTDVKPVLTNYAQRHYQRAIEYVRLGKWVIAVQELRDAIKLEPNNSDYYALLGLVHLKQKFMGMARVYICQALKLNPQNSLALKYAPELKIKLGENTNPKSMAKAVSIAALLSRFTQRKGSQVKC | not soluble
GPGSMLHDAPWHLSLAHRCLAPHGVVAIMGYATRVCVVAPEAARRDADDFMEDLQRTAREAAKMKDSKELRVALGRAIDISSSLDAGHADMYFPFRSTKRRWFTSEYAATPAQLAASYRALPEYQLLSREMPRYRQALISGRQKVQVGEETEKDEPVNVFRRQHGAEPLEVLQGCLQAQVMSLHGRNTPAMPPLRVQVRHFIITCSSRSVNAASEPFQLRSLRREIPQLK | not soluble
MGSDKIHHHHHHMSLKMKLIYVVESSVPYGANKCLIEIIDRLDKDKHEVMVVGADEGALSSWLRERNVSYVSLNHRLSIYPVLNSRKDYLLWLPRLFRRVALNVIAMVKFFKICKRFKPDIVHTNVGPCSLGYFVATYLGIKHVWHVREYQDLDFGMSFFPNRKAFLKRLKRSDAVICITNSIAAHFHLTDNENLAVINDGVISDEKEIDIIQKENYFLFAGRLEAAKGIEEAIESFFEFCETDSSGISFYVAGDGNFNYLKKLKEKVSKSNFSNRVRFLGFRDDIFALMRMAKALVVASRCEGFGLITAEAMYQGTLVIGRDTGGTSEILKDSKGIHYGFLFNSIDELTKLMHEVVDLSPDEYTKMARSAQRRTLDKYTINRNFREISDVYNTLM | not soluble
MGSDKIHHHHHHMKQNVLLQSILIQLNLLKENYSEDTIKNLMDIPKQLTSNTSYKRNVKEVSHVHIAFDDSTAGCLKHMLGQEERLEEMVVAFSEFFSIGPINKLHMNEGQLARKEWLVNNLTSYDCYFEEEYLPRFKETLEVLHSIPNETPITIWKADNAHEHVGLCFVMAQLKDKKNIRVMNTSEASKEILKLEYVIRGTGELPPENLALIQKSFVKLPYLTVENRMQFEHEWDSLSKSTEFLRIWTDNAVRSVQENYFDQFIIECAKSIGADQEFRKAPRVIGEALGLVEQSVGDTFLEYRLKELIKQEVFEFEGSLDEMRFYSVKLRK | not soluble
MEPTGMMVAAPTASLPEAIGGERNWDYRYTWIRDTAYVIEALATIGYKREAVSFLYDMMDVISRENKIRTIYSIDNSDDFVERELDFEGYRGSRPVRIGNKAVDQLQIDQYGSIVRAIHAMEKAGGVVNSYLWDFVEEMMAKIEYLWKYPDSSIWEFRTEPKQYVYSKVMSWAAFDSAITMARDLGLTAPIKKWKGIQDEIWNDVMTKGFDPQTNSFVQYYGSKNVDASLLRLPILGFIPANDERFIGTMKRIEDELMVDGYLFRRYREDDGLKGDEGSFLMLTFWYIEDLILMKRLKAARAALESIIEKANHLGLYSEEIDEKTGDFLGNFPQALSHLGIIRVAPKLEEAFLKRVSKINELEHHHHHH | not soluble
MGSDKIHHHHHHMDILQTANERMEQLAALMNKDIKQKVSADQKVKVGVDLGTSSIVFVVLDEHDVPLFGAFEFADAVRDGLVVNYRESVEVVTRLKERAEKCLGITLTHASGAIPPGTVGNNKKVVANVIESAGMEALYTIDEPTAAAAVLGLQDGAVVDVGGGTTGISVFENGEVIYTADEPTGGTHMTLVLAGYYGVPVEKAEQNKREQKDSSEHFSVMRPVVEKMAEITRVHLEKSPSEPLYIVGGASAYSQFKDTFESYLKTPVFQPNYPQYVTPLGIAMSSGSENL | not soluble
LDSANQQASNESIEVRGKIKLGLLPETYEHLQPILFEFQDQYPQVELDIRNINNGFIDMFQQGLDIALHGGMLFDSDIVARKILTLDRCVVASPNYLQTHGTPATLEELSDHQCICFRWPNGNVDNLWHFQEQNVALKPKLISNNIGFIKSSTVLDRGISYIPKLLVKNELESGALVQVLSQYAVTEETGWLLYPQPKTLNQASRLLIEHLCNKIPKLL | soluble
MGSDKIHHHHHHMDNKFKNIPKRHLPQKLPFDYTSIYTDPQIIKLTTRANIAIGTYEGFLESIINPMLLISPLLSQEAVLSSKLEGTHATLKDLLNYEAGNKVDIERDELHEIINYRKALFYALENISTINNIDSKGLPLSNRIIKEMHKILLDNVRGSSKNPGNFKRSQNYIGSVSSISYTPVPAEKTPEYMSNLEQYIHYDDLDLLVQSAIIHAQFEMIHPFEDGNGRIGRLLIPLFLYYQELLSYPTFYMSSYFERDRSLYISHLSNISKDNNWKDWFEYYLEGVILSAEESTKKAQDILSLYNIMKEQVIPKLNSVSGIQLLDFIFSAPIFKAEQVSEHLKISKRTTYTLLNKLIDEGYLSTDNAQRNRTYYCPQLLSIVQ | not soluble
